Residue numbers refer to the chain shown, from its start. In names and notes the source's numbering stands.
B1: HsPex11pβ-Myc (natural protein, human, UniProt O96011 1-259, looked up)
chain: MDAWVRFSAQSQARERLCRAAQYACSLLGHALQRHGASPELQKQIRQLESHLSLGRKLLRLGNSADALESAKRAVHLSDVVLRFCITVSHLNRALYFACDNVLWAGKSGLAPRVDQEKWAQRSFRYYLFSLIMNLSRDAYEIRLLMEQESSACSRRLKGSGGGVPGGSETGGLGGPGTPGGGLPQLALKLRLQVLLLARVLRGHPPLLLDVVRNACDLFIPLDKLGLWRCGPGIVGLCGLVSSILSILTLIYPWLRLKP
notes: human Pex11pβ (HsPex11pβ), peroxisomal membrane protein 11B; also called Pex11pβ-Myc (WT); wild type Pex11pβ-Myc; source: COS-7, transfected; cross-linked in cells, then in detergent extract or lysate; not shown: Myc, C-terminal, kept
B2: Pex11pβ-Myc^C18S-C25S-C85S (natural protein, human, UniProt O96011 1-259, looked up)
chain: B1 chain with C18S, C25S, C85S
notes: human Pex11pβ with the three N-terminal cysteines replaced by serine; also called triple mutant; source: COS-7, transfected; cross-linked in cells, then in Triton X-100 extract; not shown: Myc, C-terminal, kept

Assays:
[1] = target: the molecule itself; experiment: cross-linking; COS-7 cells fixed with 4% para-formaldehyde 24 h after transfection, postfixation extraction with 0.2% Triton X-100 (or digitonin); extracts, pellets and unfixed lysates on SDS-PAGE, anti-Myc immunoblot
[2] = target: the molecule itself; experiment: cross-linking; data not shown: para-formaldehyde fixation, postfixation Triton X-100 extraction, immunoblot

Row | Protein | stoichiometry N [1] | stoichiometry N [2]
1 | B1 | 2 | 
2 | B2 |  | 2

From publication PMC3538539, “Self-Interaction of Human Pex11pβ during Peroxisomal Growth and Division” (PLoS ONE, 2013)
